Laboratory results published in patent US10676749.

Legend:
Test in all cases: cell_activity
[1] = test system: TALE-VP64 VEGF7-3 (synthetic); settings: VEGF-A ELISA, 293 cells
[2] = test system: TALE-VP64 VEGF3-5 (synthetic); settings: VEGF-A ELISA, 293 cells
[3] = test system: TALE-VP64 VEGF6-3 (synthetic); settings: VEGF-A ELISA, 293 cells
[4] = test system: TALE-VP64 VEGF7-6 (synthetic); settings: VEGF-A ELISA, 293 cells
[5] = test system: TALE-VP64 VEGF6-6 (synthetic); settings: VEGF-A ELISA, 293 cells
[6] = test system: TALE-VP64 VEGF9-1 (synthetic); settings: VEGF-A ELISA, 293 cells
[7] = test system: TALE-VP64 VEGF4-2 (synthetic); settings: VEGF-A ELISA, 293 cells
[8] = test system: TALE-VP64 Ntf3-5 (synthetic); settings: NTF3 qRT-PCR, 293 cells
[9] = test system: TALE-VP64 Ntf3-3 (synthetic); settings: NTF3 qRT-PCR, 293 cells
[10] = test system: TALE-VP64 VEGF5-3 (synthetic); settings: VEGF-A ELISA, 293 cells
[11] = test system: TALE-VP64 VEGF5-6 (synthetic); settings: VEGF-A ELISA, 293 cells
[12] = test system: TALE-VP64 VEGF9-2 (synthetic); settings: VEGF-A ELISA, 293 cells
[13] = test system: TALE-VP64 VEGF9-6 (synthetic); settings: VEGF-A ELISA, 293 cells
[14] = test system: TALE-VP64 VEGF3-1 (synthetic); settings: VEGF-A ELISA, 293 cells
[15] = test system: TALE-VP64 VEGF1-6 (synthetic); settings: VEGF-A ELISA, 293 cells
[16] = test system: TALE-VP64 VEGF6-1 (synthetic); settings: VEGF-A ELISA, 293 cells
[17] = test system: TALE-VP64 VEGF6-4 (synthetic); settings: VEGF-A ELISA, 293 cells
[18] = test system: TALE-VP64 VEGF1-4 (synthetic); settings: VEGF-A ELISA, 293 cells; site printed with S at position 6
[19] = test system: TALE-VP64 VEGF6-5 (synthetic); settings: VEGF-A ELISA, 293 cells
[20] = test system: TALE-VP64 VEGF1-3 (synthetic); settings: VEGF-A ELISA, 293 cells
[21] = test system: TALE-VP64 VEGF9-5 (synthetic); settings: VEGF-A ELISA, 293 cells
[22] = test system: TALE-VP64 VEGF8-6 (synthetic); settings: VEGF-A ELISA, 293 cells
[23] = test system: TALE-VP64 Ntf3-1 (synthetic); settings: NTF3 qRT-PCR, 293 cells; weakest about 1000-fold
[24] = test system: TALE-VP64 VEGF1-2 (synthetic); settings: VEGF-A ELISA, 293 cells
[25] = test system: TALE-VP64 VEGF8-3 (synthetic); settings: VEGF-A ELISA, 293 cells
[26] = test system: TALE-VP64 VEGF3-3 (synthetic); settings: VEGF-A ELISA, 293 cells
[27] = test system: TALE-VP64 VEGF2-6 (synthetic); settings: VEGF-A ELISA, 293 cells
[28] = test system: TALE-VP64 Ntf3-4 (synthetic); settings: NTF3 qRT-PCR, 293 cells
[29] = test system: TALE-VP64 VEGF1-5 (synthetic); settings: VEGF-A ELISA, 293 cells
[30] = test system: TALE-VP64 VEGF5-1 (synthetic); settings: VEGF-A ELISA, 293 cells
[31] = test system: TALE-VP64 VEGF4-6 (synthetic); settings: VEGF-A ELISA, 293 cells
[32] = test system: TALE-VP64 VEGF4-5 (synthetic); settings: VEGF-A ELISA, 293 cells
[33] = test system: TALE-VP64 VEGF7-5 (synthetic); settings: VEGF-A ELISA, 293 cells
[34] = test system: TALE-VP64 VEGF9-4 (synthetic); settings: VEGF-A ELISA, 293 cells
[35] = test system: TALE-VP64 VEGF8-2 (synthetic); settings: VEGF-A ELISA, 293 cells
[36] = test system: TALE-VP64 VEGF2-5 (synthetic); settings: VEGF-A ELISA, 293 cells
[37] = test system: TALE-VP64 VEGF3-4 (synthetic); settings: VEGF-A ELISA, 293 cells
[38] = test system: TALE-VP64 VEGF4-4 (synthetic); settings: VEGF-A ELISA, 293 cells
[39] = test system: TALE-VP64 VEGF5-4 (synthetic); settings: VEGF-A ELISA, 293 cells
[40] = test system: TALE-VP64 VEGF4-1 (synthetic); settings: VEGF-A ELISA, 293 cells
[41] = test system: TALE-VP64 Ntf3-2 (synthetic); settings: NTF3 qRT-PCR, 293 cells
[42] = test system: TALE-VP64 VEGF8-5 (synthetic); settings: VEGF-A ELISA, 293 cells
[43] = test system: TALE-VP64 VEGF9-3 (synthetic); settings: VEGF-A ELISA, 293 cells
[44] = test system: TALE-VP64 VEGF8-4 (synthetic); settings: VEGF-A ELISA, 293 cells
[45] = test system: TALE-VP64 VEGF3-6 (synthetic); settings: VEGF-A ELISA, 293 cells
[46] = test system: TALE-VP64 VEGF3-2 (synthetic); settings: VEGF-A ELISA, 293 cells
[47] = test system: TALE-VP64 VEGF7-4 (synthetic); settings: VEGF-A ELISA, 293 cells
[48] = test system: TALE-VP64 VEGF8-1 (synthetic); settings: VEGF-A ELISA, 293 cells
[49] = test system: TALE-VP64 VEGF5-5 (synthetic); settings: VEGF-A ELISA, 293 cells
[50] = test system: TALE-VP64 VEGF1-1 (synthetic); settings: VEGF-A ELISA, 293 cells; range 5.3-114 over 53 active TALEs
[51] = test system: TALE-VP64 VEGF5-2 (synthetic); settings: VEGF-A ELISA, 293 cells
[52] = test system: TALE-VP64 VEGF4-3 (synthetic); settings: VEGF-A ELISA, 293 cells
[53] = test system: TALE-VP64 VEGF6-2 (synthetic); settings: VEGF-A ELISA, 293 cells
[54] = test system: TALE-VP64 VEGF7-2 (synthetic); settings: VEGF-A ELISA, 293 cells

## TCCGTCAGCGCGACTGGTCA (double strand) [VEGF7-3 site]
[1]
  activity (fold activation): > 5.3

## TACCACCTCCTCCCCGGCCGGCGG (double strand) [VEGF3-5 site]
[2]
  activity (fold activation): > 5.3

## TCCCAAGGGGGAGGGCTCAC (double strand) [VEGF6-3 site]
[3]
  activity (fold activation): > 5.3

## TCCGTCAGCGCGACTGGTCAGCTGCG (double strand) [VEGF7-6 site]
[4]
  activity (fold activation): > 5.3

## TCCCAAGGGGGAGGGCTCACGCCGCG (double strand) [VEGF6-6 site]
[5]
  activity (fold activation): > 5.3

## TCCACCCCGCCTCCGG (double strand) [VEGF9-1 site]
[6]
  activity (fold activation): > 5.3

## TCCCCGGCCGGCGGCGGA (double strand) [VEGF4-2 site]
[7]
  activity (fold activation): > 5.3

## TCCCTCAATCTGGGAAAG (double strand) [Ntf3-5 site]
[8]
  activity (fold activation (approx)): > 1000

## TTCCCCTGCTGGGTAGTG (double strand) [Ntf3-3 site]
[9]
  activity (fold activation (approx)): > 1000

## TGGACGCGGCGGCGAGCCGC (double strand) [VEGF5-3 site]
[10]
  activity (fold activation): > 5.3

## TGGACGCGGCGGCGAGCCGCGGGCAG (double strand) [VEGF5-6 site]
[11]
  activity (fold activation): > 5.3

## TCCACCCCGCCTCCGGGC (double strand) [VEGF9-2 site]
[12]
  activity (fold activation): > 5.3

## TCCACCCCGCCTCCGGGCGCGGGCTC (double strand) [VEGF9-6 site]
[13]
  activity (fold activation): > 5.3

## TACCACCTCCTCCCCG (double strand) [VEGF3-1 site]
[14]
  activity (fold activation): > 5.3

## TTGGGGGTGACCGCCGGAGCGCGGCG (double strand) [VEGF1-6 site]
[15]
  activity (fold activation): > 5.3

## TCCCAAGGGGGAGGGC (double strand) [VEGF6-1 site]
[16]
  activity (fold activation): > 5.3

## TCCCAAGGGGGAGGGCTCACGC (double strand) [VEGF6-4 site]
[17]
  activity (fold activation): > 5.3

## TTGGGGGTGACCGCCGGAGCGC (double strand) [VEGF1-4 site]
[18]
  activity (fold activation): > 5.3

## TCCCAAGGGGGAGGGCTCACGCCG (double strand) [VEGF6-5 site]
[19]
  activity (fold activation): > 5.3

## TTGGGGGTGACCGCCGGAGC (double strand) [VEGF1-3 site]
[20]
  activity (fold activation): > 5.3

## TCCACCCCGCCTCCGGGCGCGGGC (double strand) [VEGF9-5 site]
[21]
  activity (fold activation): > 5.3

## TCCACTGTCCGCCGCCGGCCGGGGAG (double strand) [VEGF8-6 site]
[22]
  activity (fold activation): > 5.3

## TTCTGTTCACGGGACTCA (double strand) [Ntf3-1 site]
[23]
  activity (fold activation (approx)): > 1000

## TTGGGGGTGACCGCCGGA (double strand) [VEGF1-2 site]
[24]
  activity (fold activation): > 5.3

## TCCACTGTCCGCCGCCGGCC (double strand) [VEGF8-3 site]
[25]
  activity (fold activation): > 5.3

## TACCACCTCCTCCCCGGCCG (double strand) [VEGF3-3 site]
[26]
  activity (fold activation): > 5.3

## TCCCGCAGCTGACCAGTCGCGCTGAC (double strand) [VEGF2-6 site]
[27]
  activity (fold activation): > 5.3

## TACGCCTCAGACCTGATC (double strand) [Ntf3-4 site]
[28]
  activity (fold activation (approx)): > 1000

## TTGGGGGTGACCGCCGGAGCGCGG (double strand) [VEGF1-5 site]
[29]
  activity (fold activation): > 5.3

## TGGACGCGGCGGCGAG (double strand) [VEGF5-1 site]
[30]
  activity (fold activation): > 5.3

## TCCCCGGCCGGCGGCGGACAGTGGAC (double strand) [VEGF4-6 site]
[31]
  activity (fold activation): > 5.3

## TCCCCGGCCGGCGGCGGACAGTGG (double strand) [VEGF4-5 site]
[32]
  activity (fold activation): > 5.3

## TCCGTCAGCGCGACTGGTCAGCTG (double strand) [VEGF7-5 site]
[33]
  activity (fold activation): > 5.3

## TCCACCCCGCCTCCGGGCGCGG (double strand) [VEGF9-4 site]
[34]
  activity (fold activation): > 5.3

## TCCACTGTCCGCCGCCGG (double strand) [VEGF8-2 site]
[35]
  activity (fold activation): > 5.3

## TCCCGCAGCTGACCAGTCGCGCTG (double strand) [VEGF2-5 site]
[36]
  activity (fold activation): > 5.3

## TACCACCTCCTCCCCGGCCGGC (double strand) [VEGF3-4 site]
[37]
  activity (fold activation): > 5.3

## TCCCCGGCCGGCGGCGGACAGT (double strand) [VEGF4-4 site]
[38]
  activity (fold activation): > 5.3

## TGGACGCGGCGGCGAGCCGCGG (double strand) [VEGF5-4 site]
[39]
  activity (fold activation): > 5.3

## TCCCCGGCCGGCGGCG (double strand) [VEGF4-1 site]
[40]
  activity (fold activation): > 5.3

## TCCGAACAGCTCCGCGCA (double strand) [Ntf3-2 site]
[41]
  activity (fold activation (approx)): > 1000

## TCCACTGTCCGCCGCCGGCCGGGG (double strand) [VEGF8-5 site]
[42]
  activity (fold activation): > 5.3

## TCCACCCCGCCTCCGGGCGC (double strand) [VEGF9-3 site]
[43]
  activity (fold activation): > 5.3

## TCCACTGTCCGCCGCCGGCCGG (double strand) [VEGF8-4 site]
[44]
  activity (fold activation): > 5.3

## TACCACCTCCTCCCCGGCCGGCGGCG (double strand) [VEGF3-6 site]
[45]
  activity (fold activation): > 5.3

## TACCACCTCCTCCCCGGC (double strand) [VEGF3-2 site]
[46]
  activity (fold activation): > 5.3

## TCCGTCAGCGCGACTGGTCAGC (double strand) [VEGF7-4 site]
[47]
  activity (fold activation): > 5.3

## TCCACTGTCCGCCGCC (double strand) [VEGF8-1 site]
[48]
  activity (fold activation): > 5.3

## TGGACGCGGCGGCGAGCCGCGGGC (double strand) [VEGF5-5 site]
[49]
  activity (fold activation): > 5.3

## TTGGGGGTGACCGCCG (double strand) [VEGF1-1 site]
[50]
  activity (fold activation): > 5.3

## TGGACGCGGCGGCGAGCC (double strand) [VEGF5-2 site]
[51]
  activity (fold activation): > 5.3

## TCCCCGGCCGGCGGCGGACA (double strand) [VEGF4-3 site]
[52]
  activity (fold activation): > 5.3

## TCCCAAGGGGGAGGGCTC (double strand) [VEGF6-2 site]
[53]
  activity (fold activation): > 5.3

## TCCGTCAGCGCGACTGGT (double strand) [VEGF7-2 site]
[54]
  activity (fold activation): > 5.3
